Patent US11492376B2, “Toxoplasma gondii GRA8-derived recombinant peptides and composition for preventing or treating cancer comprising the same” (Industry—University Cooperation Foundation Hanyang …, priority 2019, dated 2022)

Experiments:
BMDM = assay: MTT assay of cell viability, bone marrow-derived macrophages (BMDM); assay type: cell-based, mouse; settings: 20 μg/ml
Procedure: FIGS. 2A, 2B, 2C, 2D and 2E show the design and expression of an ATRAM-conjugated multifunctional GRA8 peptide (rATRAM-G8-M/AS)-based protein [(A) Subcellular fractionation of 293T cells was performed by expression of GST-GRA8 WT or incubation of WT rGRA8 with (1 μg/ml) BMDM and treatment with several Tat-GRA8 peptides for 6 hours (10 μM). Mitochondrial and cytosolic fractions were fractionated and analyzed for expression of GST by IB. The purity of the fractions was confirmed by blotting for VDAC (mitochondrial protein) and actin (cytosolic protein). (B) A mammalian GST-GRA8 construct was transfected into 293T cells for 12 hours with V5-ATP5A1 or Flag-SIRT3, and treated with several Tat-GRA8 peptides (10 μM) for 6 hours. The 293T cells were used for GST pulldown, followed by IB with αV5 or αFlag. WCL was used for IB with αGST, αV5, αFlag or αActin. […] (D) 6×His-rATRAM-GRA8-M/AS purified with bacteria and its mutants were analyzed by Coomassie blue staining (left) or αHis immunoblotting (IB; right). (E) BMDM was incubated with rATRAM-GRA8-M/AS and its mutant (20 μg/ml) for indicated times, and cell viability was then measured by an MMT assay. […]
As described in Non-Patent Document 1, the cell viability for a non-treated group was measured by an MTT assay. […] Using a UV/VIS spectrophotometer, each well of a plate was measured at 540 nm to measure relative cell viability.

HCT116 cells = assay: Mitochondrial DNA quantification by real-time PCR; assay type: cell-based, human; settings: 1 day, via SIRT3 and PKCα
Procedure: (§1) FIGS. 4A, 4B, 4C, 4D and 4E show HCT116 cell death by rATRAM-GRA8-M/AS-induced mitochondrial activation [(A and B) HCT116 cells were incubated with WT rGRA8 or rATRAM-GRA8-M/AS and its mutants for indicated times, and then cell viability was measured with an MTT assay. […] The cells were stimulated with rATRAM-GRA8-M/AS for 1 day and subjected to enzymatic activity of OXPHOS V, and (C) MitoTracker fluorescence signals were assessed by flow cytometry. (D) A bar graph indicates a mitochondrial mass (MFI), and (E) the mtDNA content of BMDM was measured by quantitative real-time PCR. The mtDNA content was normalized by nuclear DNA. Significant differences were determined by comparison with control treatment (** P<0.01; *** P<0.001). Data represents five independent experiments with similar results].
To quantify the copy number of mitochondrial DNA (mtDNA), by the method described in Autophagy. 2014; 10:785-802: The AMPK-PPARGC1A pathway is required for antimicrobial host defense through activation of autophagy, an mtDNA to nuclear DNA (nDNA) ratio was measured. Pyruvate kinase (Pklr) was used as a marker for nDNA and NADH dehydrogenase subunit 1 (mt-Nd1) was used as a marker for mtDNA. A real-time PCR reaction was performed according to the manufacturer's instructions (QuantiFast SYBR green PCR master mix; Qiagen, 204052), and temperature cycling was performed in QuantStudio™ 3 (ABI). […]

complex V OXPHOS = molecular target: T1, complex V OXPHOS (Homo sapiens, UniProt P25705); assay: Mitochondria complex V OXPHOS activity assay in HCT116 cells; assay type: cell-based
T1 construct: rATRAM-GRA8-M/AS enhanced complex V OXPHOS activity, mitochondrial mass and mitochondrial DNA content via SIRT3 and PKCα in HCT116 cells; endogenous in cells; host or cells: HCT116 cells
Procedure: as §1
The activity of complex V was measured using a MitoTox Complex V OXPHOS Activity Microplate Assay kit manufactured by Abcam (ab109907, MA, Cambridge) according to the manufacturer's instructions. The activity of complex V was measured by monitoring the change in absorbance at 340 nm for 1 hour at 30° C. Oligomycin (Sigma, 04876) was used as a positive control for the assay.

HCT116 xenografts = assay: HCT116 xenograft mouse model, antitumor activity; assay type: in vivo, nude mouse

B1: (GLAGLAGLLGLEGLLGLPLGLLEGLWLGLELEGN)2-GG-ATATTTTTTR-GG-YRFTVQTTQN (protein)
chain: GLAGLAGLLGLEGLLGLPLGLLEGLWLGLELEGNGLAGLAGLLGLEGLLGLPLGLLEGLWLGLELEGNGGATATTTTTTRGGYRFTVQTTQN
modifications: His tag; rATRAM-G8-M/AS
BMDM
  cytotoxicity in macrophages compared with vector control: No significant cytotoxic differences
HCT116 cells
  mitochondrial DNA content: enhanced
Complex V OXPHOS; HCT116 cells, 1 day, via SIRT3 and PKCα
  complex V OXPHOS activity: enhanced
Complex V OXPHOS; summary statement, FIG. 4
  mitochondrial activity (Oxphos V activity, mitochondrial mass and ATP production) in cancer cells: induced
HCT116 xenografts; 20 μg/kg, intraperitoneal injection (FIG. 6A)
  growth of tumors which started to initially grow: inhibited the growth of tumors
HCT116 xenografts; 20 μg/kg, intraperitoneal injection (FIG. 6B)
  growth of actively growing tumors: inhibited the growth
HCT116 xenografts; HCT116 xenograft
  fold improvement of IC50 compared with rGRA8 (anti-tumor activity): 500 fold
HCT116 xenografts; HCT116 xenograft mice, intraperitoneal
  IC50 (antitumor activity in xenograft): 20 µg/kg
HCT116 xenografts; HCT116 xenograft, effect dependent on PKCα, SIRT3, ATP5A1 and acetylation state of K506 and K531
  tumor size and tumor growth: a decrease in tumor size and delayed tumor growth
HCT116 xenografts; HCT116 xenograft, listed as rATRAM-G8-M/AS
  fold improvement of IC50 compared with rGRA8 (anti-tumor activity): approximately 500 fold
